{"source": "patent US20210324015A1", "molecular_target": "Pfs25 (Plasmodium falciparum) (UniProt P13829)", "sequence (P13829 17-196)": "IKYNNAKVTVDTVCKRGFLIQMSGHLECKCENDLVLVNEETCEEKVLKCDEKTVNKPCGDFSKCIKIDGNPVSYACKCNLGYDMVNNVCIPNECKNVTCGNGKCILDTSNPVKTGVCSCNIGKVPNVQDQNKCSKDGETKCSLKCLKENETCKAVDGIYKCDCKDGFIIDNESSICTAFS", "test": "cell-based or functional assay"}
{"substance": "anti-Pfs25 mAb 4B7 (antibody)", "values": [{"measurement": "% inhibition estimate (standard membrane feeding assay, SMFA)", "result": 93.8, "unit": "%"}]}
